Data reported in publication PMC4961847 (2016).

Target: PD-L1 ECD (Homo sapiens, UniProt Q9NZQ7)
Assay: magneto-nanosensor

PD-L1 ECD, sequence (Q9NZQ7 19-238): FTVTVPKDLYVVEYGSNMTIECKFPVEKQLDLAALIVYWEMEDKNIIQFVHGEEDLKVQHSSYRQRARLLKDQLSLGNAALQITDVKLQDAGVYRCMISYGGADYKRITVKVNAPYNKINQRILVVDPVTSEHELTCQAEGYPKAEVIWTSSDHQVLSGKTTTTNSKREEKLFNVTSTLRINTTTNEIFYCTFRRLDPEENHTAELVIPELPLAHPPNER

B1: PD-L2 ECD (protein)
chain: LFTVTVPKELYIIEHGSNVTLECNFDTGSHVNLGAITASLQKVENDTSPHRERATLLEEQLPLGKASFHIPQVQVRDEGQYQCIIIYGVAWDYKYLTLKVKASYRKINTHILKVPETDEVELTCQATGYPLAEVSWPNVSVPANTSHSRTPEGLYQVTSVLRLKPPPGRNFSCVFWNTHVRELTLASIDLQSQMEPRTHPT
  Kd: 9.1 µM
